From US20110166062A1 (INDIANA UNIVERSITY RESEARCH AND TECHNOLOGY, published 2011)
Bridges are numbered along the chain shown (N, C = ends). Where no end group is shown, it is not given here. [ ]: non-standard residue; d: D form. Aib = CC(C)(N)C(=O)O

T1: GIP receptor (UniProt P48546 22-466)
T1 sequence (looked up): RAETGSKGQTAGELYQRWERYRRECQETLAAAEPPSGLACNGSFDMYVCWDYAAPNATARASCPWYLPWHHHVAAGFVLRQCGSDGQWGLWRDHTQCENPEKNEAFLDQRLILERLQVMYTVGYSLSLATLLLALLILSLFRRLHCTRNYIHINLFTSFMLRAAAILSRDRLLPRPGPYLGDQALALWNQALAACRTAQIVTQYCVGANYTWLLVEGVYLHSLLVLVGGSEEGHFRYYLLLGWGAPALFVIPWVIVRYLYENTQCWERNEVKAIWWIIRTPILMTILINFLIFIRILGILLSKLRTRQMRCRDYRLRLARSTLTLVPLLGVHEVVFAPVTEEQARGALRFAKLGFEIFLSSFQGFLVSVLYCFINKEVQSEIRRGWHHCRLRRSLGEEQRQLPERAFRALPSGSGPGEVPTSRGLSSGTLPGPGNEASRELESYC

B1: mt-102 (peptide)
peptide: Y[Aib]EGTFISDYSIAMDKIHQQDFVCWLLAQKGKKNWLKHNITQ-NH2
B2: mt-62 (peptide)
peptide: HSQGTFTSDYSIYLDEIHQKEFIAWLMNT-NH2
modifications: lactam 16-20; N-terminus assumed
SMILES: CC[C@H](C)[C@H](NC(=O)[C@H](Cc1ccccc1)NC(=O)[C@H](CCC(=O)O)NC(=O)[C@@H]1CCCCNC(=O)CC[C@H](NC(=O)[C@H](CC(=O)O)NC(=O)[C@H](CC(C)C)NC(=O)[C@H](Cc2ccc(O)cc2)NC(=O)[C@@H](NC(=O)[C@H](CO)NC(=O)[C@H](Cc2ccc(O)cc2)NC(=O)[C@H](CC(=O)O)NC(=O)[C@H](CO)NC(=O)[C@@H](NC(=O)[C@H](Cc2ccccc2)NC(=O)[C@@H](NC(=O)CNC(=O)[C@H](CCC(N)=O)NC(=O)[C@H](CO)NC(=O)[C@@H](N)Cc2c[nH]cn2)[C@@H](C)O)[C@@H](C)O)[C@@H](C)CC)C(=O)N[C@@H]([C@@H](C)CC)C(=O)N[C@@H](Cc2c[nH]cn2)C(=O)N[C@@H](CCC(N)=O)C(=O)N1)C(=O)N[C@@H](C)C(=O)N[C@@H](Cc1c[nH]c2ccccc12)C(=O)N[C@@H](CC(C)C)C(=O)N[C@@H](CCSC)C(=O)N[C@@H](CC(N)=O)C(=O)N[C@H](C(N)=O)[C@@H](C)O
B3: mt-66 (peptide)
peptide: HSQGTFTSDYSKYLDEIHQKEFIAWLLAQ-NH2
B4: mt-93 (peptide)
peptide: HSQGTFTSDYSIYLDEKHQKEFIAWLLAQ-NH2
modifications: lactam 16-20, 17-21; N-terminus assumed
SMILES: CC[C@H](C)[C@H](NC(=O)[C@H](Cc1ccccc1)NC(=O)[C@@H]1CCC(=O)NCCCC[C@@H]2NC(=O)[C@@H](NC(=O)[C@H](CC(=O)O)NC(=O)[C@H](CC(C)C)NC(=O)[C@H](Cc3ccc(O)cc3)NC(=O)[C@@H](NC(=O)[C@H](CO)NC(=O)[C@H](Cc3ccc(O)cc3)NC(=O)[C@H](CC(=O)O)NC(=O)[C@H](CO)NC(=O)[C@@H](NC(=O)[C@H](Cc3ccccc3)NC(=O)[C@@H](NC(=O)CNC(=O)[C@H](CCC(N)=O)NC(=O)[C@H](CO)NC(=O)[C@@H](N)Cc3c[nH]cn3)[C@@H](C)O)[C@@H](C)O)[C@@H](C)CC)CCC(=O)NCCCC[C@H](NC(=O)[C@H](CCC(N)=O)NC(=O)[C@H](Cc3c[nH]cn3)NC2=O)C(=O)N1)C(=O)N[C@@H](C)C(=O)N[C@@H](Cc1c[nH]c2ccccc12)C(=O)N[C@@H](CC(C)C)C(=O)N[C@@H](CC(C)C)C(=O)N[C@@H](C)C(=O)N[C@@H](CCC(N)=O)C(N)=O
B5: mt-106 (peptide)
peptide: YAEGTFISDYSIAMDKIHQQDFVNWLLAQ-NH2
B6: mt-151 (peptide)
peptide: YSQGTFTSDYSKYLDEQAAKEFIAWLLAGGPSSGAPPPS-NH2
modifications: lactam 16-20; N-terminus assumed
SMILES: CC[C@H](C)[C@H](NC(=O)[C@H](Cc1ccccc1)NC(=O)[C@H](CCC(=O)O)NC(=O)[C@@H]1CCCCNC(=O)CC[C@H](NC(=O)[C@H](CC(=O)O)NC(=O)[C@H](CC(C)C)NC(=O)[C@H](Cc2ccc(O)cc2)NC(=O)[C@H](CCCCN)NC(=O)[C@H](CO)NC(=O)[C@H](Cc2ccc(O)cc2)NC(=O)[C@H](CC(=O)O)NC(=O)[C@H](CO)NC(=O)[C@@H](NC(=O)[C@H](Cc2ccccc2)NC(=O)[C@@H](NC(=O)CNC(=O)[C@H](CCC(N)=O)NC(=O)[C@H](CO)NC(=O)[C@@H](N)Cc2ccc(O)cc2)[C@@H](C)O)[C@@H](C)O)C(=O)N[C@@H](CCC(N)=O)C(=O)N[C@@H](C)C(=O)N[C@@H](C)C(=O)N1)C(=O)N[C@@H](C)C(=O)N[C@@H](Cc1c[nH]c2ccccc12)C(=O)N[C@@H](CC(C)C)C(=O)N[C@@H](CC(C)C)C(=O)N[C@@H](C)C(=O)NCC(=O)NCC(=O)N1CCC[C@H]1C(=O)N[C@@H](CO)C(=O)N[C@@H](CO)C(=O)NCC(=O)N[C@@H](C)C(=O)N1CCC[C@H]1C(=O)N1CCC[C@H]1C(=O)N1CCC[C@H]1C(=O)N[C@@H](CO)C(N)=O
B7: mt-155 (peptide)
peptide: YSQGTFTSDYSKYLDEQAAKEFVNWLLAGGPSSGAPPPS-NH2
modifications: lactam 12-16; N-terminus assumed
SMILES: CC(C)C[C@H](NC(=O)[C@H](CC(C)C)NC(=O)[C@H](Cc1c[nH]c2ccccc12)NC(=O)[C@H](CC(N)=O)NC(=O)[C@@H](NC(=O)[C@H](Cc1ccccc1)NC(=O)[C@H](CCC(=O)O)NC(=O)[C@H](CCCCN)NC(=O)[C@H](C)NC(=O)[C@H](C)NC(=O)[C@H](CCC(N)=O)NC(=O)[C@@H]1CCC(=O)NCCCC[C@H](NC(=O)[C@H](CO)NC(=O)[C@H](Cc2ccc(O)cc2)NC(=O)[C@H](CC(=O)O)NC(=O)[C@H](CO)NC(=O)[C@@H](NC(=O)[C@H](Cc2ccccc2)NC(=O)[C@@H](NC(=O)CNC(=O)[C@H](CCC(N)=O)NC(=O)[C@H](CO)NC(=O)[C@@H](N)Cc2ccc(O)cc2)[C@@H](C)O)[C@@H](C)O)C(=O)N[C@@H](Cc2ccc(O)cc2)C(=O)N[C@@H](CC(C)C)C(=O)N[C@@H](CC(=O)O)C(=O)N1)C(C)C)C(=O)N[C@@H](C)C(=O)NCC(=O)NCC(=O)N1CCC[C@H]1C(=O)N[C@@H](CO)C(=O)N[C@@H](CO)C(=O)NCC(=O)N[C@@H](C)C(=O)N1CCC[C@H]1C(=O)N1CCC[C@H]1C(=O)N1CCC[C@H]1C(=O)N[C@@H](CO)C(N)=O
B8: mt-146 (peptide)
peptide: YAQGTFISDYSKYLDEQAAKEFVNWLLAGGPSSGAPPPS-NH2
modifications: lactam 16-20; N-terminus assumed
SMILES: CC[C@H](C)[C@H](NC(=O)[C@H](Cc1ccccc1)NC(=O)[C@@H](NC(=O)CNC(=O)[C@H](CCC(N)=O)NC(=O)[C@H](C)NC(=O)[C@@H](N)Cc1ccc(O)cc1)[C@@H](C)O)C(=O)N[C@@H](CO)C(=O)N[C@@H](CC(=O)O)C(=O)N[C@@H](Cc1ccc(O)cc1)C(=O)N[C@@H](CO)C(=O)N[C@@H](CCCCN)C(=O)N[C@@H](Cc1ccc(O)cc1)C(=O)N[C@@H](CC(C)C)C(=O)N[C@@H](CC(=O)O)C(=O)N[C@H]1CCC(=O)NCCCC[C@@H](C(=O)N[C@@H](CCC(=O)O)C(=O)N[C@@H](Cc2ccccc2)C(=O)N[C@H](C(=O)N[C@@H](CC(N)=O)C(=O)N[C@@H](Cc2c[nH]c3ccccc23)C(=O)N[C@@H](CC(C)C)C(=O)N[C@@H](CC(C)C)C(=O)N[C@@H](C)C(=O)NCC(=O)NCC(=O)N2CCC[C@H]2C(=O)N[C@@H](CO)C(=O)N[C@@H](CO)C(=O)NCC(=O)N[C@@H](C)C(=O)N2CCC[C@H]2C(=O)N2CCC[C@H]2C(=O)N2CCC[C@H]2C(=O)N[C@@H](CO)C(N)=O)C(C)C)NC(=O)[C@H](C)NC(=O)[C@H](C)NC(=O)[C@H](CCC(N)=O)NC1=O

target: glucagon receptor (UniProt P47871 26-477, limits assumed); assay: cell-based or functional assay
Sequence (P47871 26-477 limits assumed): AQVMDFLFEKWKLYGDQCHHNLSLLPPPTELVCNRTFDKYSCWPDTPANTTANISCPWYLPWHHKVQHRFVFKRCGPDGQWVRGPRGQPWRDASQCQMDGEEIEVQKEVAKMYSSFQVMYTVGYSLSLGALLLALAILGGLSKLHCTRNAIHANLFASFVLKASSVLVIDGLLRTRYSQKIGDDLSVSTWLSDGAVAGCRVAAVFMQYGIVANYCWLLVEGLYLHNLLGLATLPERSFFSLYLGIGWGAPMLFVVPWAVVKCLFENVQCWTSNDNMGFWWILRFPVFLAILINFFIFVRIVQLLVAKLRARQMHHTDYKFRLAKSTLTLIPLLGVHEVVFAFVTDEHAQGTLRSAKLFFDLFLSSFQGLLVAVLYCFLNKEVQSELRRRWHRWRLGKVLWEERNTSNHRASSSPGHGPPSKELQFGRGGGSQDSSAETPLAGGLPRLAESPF

First: B1
Second: B2
The “EC50” value of the first is 1800-fold higher: 799 nM for the first, 0.45 nM for the second.

First: B3
Second: B4
The “EC50” value of the first is 1.5-fold lower: 2 nM for the first, 3 nM for the second.

With B5 the “EC50” value was 165 nM.

First: B1
Second: B2
The relative activity of the first is lower: 0.02% for the first, 42.2% for the second.

Going from B3 to B5, the relative activity falls from 13% to 0.11%.

target: GLP-1 receptor (UniProt P43220 24-463, limits assumed); assay: cell-based or functional assay

Compared with B6, B7 is 5-fold lower in “EC50” value: 0.126 nM for the first, 0.025 nM for the second.

First: B8
Second: B1
The “EC50” value of the first is 7.5-fold lower: 13.1 nM for the first, 98.4 nM for the second.

B2 and B3 are within 1.5-fold of each other in “EC50” value: 0.1 nM for the first, 0.13 nM for the second.

Compared with B4, B5 is 6600-fold higher in “EC50” value: 0.04 nM for the first, 264 nM for the second.

Going from B1 to B2, the relative activity rises from 0.06% to 40%.

Going from B3 to B5, the relative activity falls from 38.5% to 0.02%.

target: T1, GIP receptor; assay: cell-based or functional assay

B6 and B7 are within 1.5-fold of each other in “EC50” value: 0.852 nM for the first, 0.665 nM for the second.

Compared with B8, B2 is 13-fold higher in “EC50” value: 0.391 nM for the first, 5.18 nM for the second.

For B2, the relative activity was 1.6%.
